Target: Pablo, full length (pro-apoptotic Bcl-xL binding protein) (human) (UniProt Q92558)
Assay: cell-based or functional assay

Sequence of UniProt Q92558 (Q92558 whole entry): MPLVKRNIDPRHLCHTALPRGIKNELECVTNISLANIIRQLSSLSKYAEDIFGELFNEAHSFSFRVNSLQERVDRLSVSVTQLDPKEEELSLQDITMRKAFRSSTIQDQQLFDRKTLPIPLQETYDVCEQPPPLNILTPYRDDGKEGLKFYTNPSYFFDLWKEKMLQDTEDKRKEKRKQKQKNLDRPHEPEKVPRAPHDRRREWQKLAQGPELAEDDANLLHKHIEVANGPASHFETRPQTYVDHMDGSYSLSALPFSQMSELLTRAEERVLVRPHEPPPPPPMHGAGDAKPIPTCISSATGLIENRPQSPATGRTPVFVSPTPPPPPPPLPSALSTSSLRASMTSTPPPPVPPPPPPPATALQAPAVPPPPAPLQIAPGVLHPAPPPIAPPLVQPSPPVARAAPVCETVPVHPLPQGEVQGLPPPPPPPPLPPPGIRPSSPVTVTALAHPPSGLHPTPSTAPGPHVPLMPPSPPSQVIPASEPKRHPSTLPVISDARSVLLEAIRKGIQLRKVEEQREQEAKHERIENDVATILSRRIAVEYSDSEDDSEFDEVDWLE

apoptotic nuclei at 48 hours post-transfection/induction (PC12-Pablo cells, Hoechst stain): 3.5%
percentage of PC12 cells that were eGFP+, 48 hours post-transfection/induction: 14%
Substance: Bcl-xL-eGFP (from UniProt Q07817 1-233)

Reference: US20040157327A1
